Assay results taken from US20170307631A1, “METHODS, SYSTEMS AND PRODUCTS FOR PREDICTING RESPONSE OF TUMOR CELLS TO A THERAPEUTIC AGENT AND TREATING A PATIENT ACCORDING TO THE PREDICTED RESPONSE” (Merrimack Pharmaceuticals, Inc., priority 2008, published 2017).

Columns and labels:
pErbB1 in NCI-ADRr cells = test: ErbB1 phosphorylation dose response curves for ErbB ligands (ELISA); assay type: cell-based, human
Protocol: (§1) For stimulation of the cells, the cells are seeded in […] at 35,000 cells per well in 96 well tissue culture plates and incubated overnight in a humidified atmosphere of 5% CO2, 95% air and 37 degrees Celsius. Cells are then switched to serum free media: RPMI-1640 media (Gibco) supplemented with, 2 mM L-glutamine (Gibco) and units/mL Pen-Strep (Gibco). Starved cells are incubated in a humidified atmosphere of 5% CO2, 95% air and 37 degrees Celsius for 20-24 hours prior to stimulation.
(§2) Levels of protein phosphorylation in the stimulated cells are measured by ELISA. Capture antibodies against ErbB1 (R&D Systems, AF231), ErbB2 (R&D Systems, MAB1129), ErbB3 (R&D Systems, MAB3481) and AKT (Upstate, 05-591MG) are incubated in 384 well black flat-bottom polystyrene high-binding plates (Corning, Catalog #3708) overnight at room temperature. The ELISA plates are blocked with 2% bovine serum albumin (BSA) and phosphate buffered saline (PBS) for one hour then incubated with lysates diluted in 2% BSA, 0.1% Tween-20 and PBS for two hours at room temp. In between each incubation, the plates are washed three times with 0.05% Tween-20 in PBS. ELISAs for measuring phospho-ErbB1, -ErbB2 and -ErbB3 are incubated with phospho-tyrosine horseradish peroxidase (HRP) linked monoclonal antibody (R&D Systems, HAM1676) for two hours. ELISAs measuring phospho-AKT are incubated with primary serine 473 specific anti-phospho AKT mouse monoclonal antibody (Cell Signaling Technologies, Catalog #5102) for 2 hours, then incubated with Streptavidin-HRP (R&D Systems, Catalog # DY998,) for 30 minutes. All ELISAs are visualized with SuperSignal ELISA Pico Chemiluminescent Substrate (Pierce, Catalog #37069) and luminescent signal is measured using a luminometer.

pErbB2 in NCI-ADRr cells = test: ErbB2 phosphorylation dose response curves for ErbB ligands (ELISA); assay type: cell-based, human
Protocol: as §1, §2

pErbB3 in NCI-ADRr cells = test: ErbB3 phosphorylation dose response curves for ErbB ligands (ELISA); assay type: cell-based, human
Protocol: as §1, §2

pAKT in NCI-ADRr cells = test: AKT phosphorylation dose response curves for ErbB ligands (ELISA); assay type: cell-based, human
Protocol: as §1, §2

ErbB1 (E1) = ErbB1 (E1) (Homo sapiens, UniProt P00533); test: ErbB computational model: BTC ligand binding rate parameters
Description: (§3) The ErbB receptor signaling network model consists of three receptors (ErbB1, ErbB2, ErbB3), a receptor phosphatase, phosphatidylinositol 3-kinase (PI3K, which binds the receptors) and components of the PI3K-AKT cascade (phosphatidylinositol bisphosphate, PIP2, phosphoinositide-dependent protein kinase, PDK1, PTEN deleted from chromosome 10, PTEN, serine, threonine protein kinase also known as protein kinase B, AKT, Protein phosphatase 2A, PP2A) (see Table 8 below).
(§4) Many of the reaction rate parameters are unknown in the cell system we studied and therefore had to be estimated (see Table 10 below). To avoid biasing the starting point, all parameters were set to default values (Aldridge, B. B. et al. (2006) Nat. Cell. Biol. 8:1195-1203). The number of parameters estimated was limited by performing the estimation in two stages: first the model was calibrated against the experimentally observed ErbB receptor phosphorylation data; second, the parameters sensitive to AKT phosphorylation were optimized against the experimental data. Estimated values were only accepted if the parameters were constrained under multiple parameter runs using a genetic algorithm with a population size of 50 and 25 generations (Mathworks, Mass.). […] The normalized sensitivities of each species were integrated over the two hour stimulation, and parameters with normalized, integrated sensitivities greater than an arbitrary threshold of 1000 are listed in Table 11 below. As mentioned above, ErbB4 phosphorylation was not included into the parameter estimation because the cell line studied had barely detectable ErbB4 (see Table 3 below). ErbB4 reactions are parameterized according to ErbB3 reactions.

ErbB3 (E3) = ErbB3 (E3) (Homo sapiens, UniProt P21860); test: ErbB computational model: HRG ligand binding rate parameters
Description: as §3, §4

[1] = tested on: MALME3M xenograft tumor model; test: Xenograft efficacy study with Ab #6, MALME3M model; assay type: in vivo, mouse
Description: (§5) In this example, four xenograft tumor models were used to identify tumor cell lines that responded to treatment with the anti-ErbB3 antibody Ab #6. The four xenograft tumor models studied represent different indications: MALME3M (melanoma cancer line; ATCC No. HTB-64), ADRr (ovarian cancer cell line; NCI-60, cosmic sample ID No. 905987), ACHN (renal cancer cell line; ATCC No. CRL-1611) and DU145 (prostate cancer cell line; ATCC No. HTB-81).
(§6) In the xenograft tumor models, mice (nu/nu mice: 3-4 week old female mice, T-cell deficient; outbred; Albino background; from Charles River Labs, Wilmington, Mass.) are implanted in the right flank with 3.5×10^6-3×10^8 cells/mouse (depending on cell line) in 200 μl via subcutaneous injection. Mice are monitored for initial tumor growth. Tumor cells are allowed to grow for several days until the tumor volume is approximately 200 mm^3. The tumor volume is calculated as V=(π/6 (L×W^2). The mice are treated with the Ab #6 antibody at a dosage of 600 μg/injection every 3 days (qd3). Control mice are treated with phosphate buffered saline (PBS).
(§7) Tumor volume is measured for 60-80 days.
(§8) As a measure of responsiveness of the tumor to Ab #6, the exponential growth rate is determined, which described the experimental data best. The following formula is used to describe the exponential growth. […]

[2] = tested on: DU145 xenograft tumor model; test: Xenograft efficacy study with Ab #6, DU145 model; assay type: in vivo, mouse
Description: as §5, §6, §7, §8

[3] = tested on: ADRr xenograft tumor model; test: Xenograft efficacy study with Ab #6, ADRr model; assay type: in vivo, mouse
Description: as §5, §6, §7, §8

[4] = tested on: ACHN xenograft tumor model; test: Xenograft efficacy study with Ab #6, ACHN model; assay type: in vivo, mouse
Description: as §5, §6, §7, §8

[5] = tested on: IGROV1 xenograft tumor model; test: Xenograft study with Ab #6 (predicted set), IGROV1; assay type: in vivo, mouse
Protocol: as §6
(§9) To test these model predictions, three additional in vivo xenograft studies were performed. The IGROV1, OVCAR8 and SKOV3 cell lines were used in xenograft studies conducted as described in Example 1, wherein mice were treated with 600 μg of Ab #6 every 3 days or with PBS as a control. The xenograft responses, as determined by changes in tumor volume (in mm^3) over time, are summarized in the graphs of FIGS. 9A-9C. Again, the Growth Rate Reduction (GRR) value for each cell line was calculated using the following formula:
(§10) Growth Rate Reduction=1−(Ab #6 Growth Rate)/(PBS Growth Rate)

[6] = tested on: OVCAR8 xenograft tumor model; test: Xenograft study with Ab #6 (predicted set), OVCAR8; assay type: in vivo, mouse
Protocol: as §6, §9, §10

[7] = tested on: SKOV3 xenograft tumor model; test: Xenograft study with Ab #6 (predicted set), SKOV3; assay type: in vivo, mouse
Protocol: as §6, §9, §10

ErbB3 = ErbB3 (Homo sapiens, UniProt P21860); test: Ab #6 rate constants measured by Kinexa (inhibitor parameter values); assay type: binding
[8] = estimated using known Kds and initial dose response curves
[9] = Ab #6 600 μg/injection every 3 days vs PBS, negative GRR set to zero
[10] = Ab #6 600 μg/injection every 3 days vs PBS
[11] = 600 μg of Ab #6 every 3 days vs PBS

## AR: ErbB ligand amphiregulin
pErbB1 in NCI-ADRr cells
  EC50: 37 nM
  pErbB1 % stimulation at 5 min relative to maximum: 95.0%
pErbB2 in NCI-ADRr cells
  pErbB2 % stimulation at 5 min relative to maximum: 54.0%
pErbB3 in NCI-ADRr cells
  EC50: 380 nM
  pErbB3 % stimulation at 5 min relative to maximum: 17.0%
pAKT in NCI-ADRr cells
  pAKT % stimulation at 5 min relative to maximum: 28.0%

## BTC: ErbB ligand betacellulin, binds primarily to ErbB1
pErbB1 in NCI-ADRr cells
  EC50: 5.7 nM
pErbB3 in NCI-ADRr cells
  EC50: 100 nM
ErbB1 (E1); [8]
  forward binding rate: ~100000 M⁻¹ s⁻¹
ErbB1 (E1); model parameter
  kf3: BTC binding to E1: 5.00 × 10^−11 molecules−1 sec−1
  kf4: BTC binding to E1 homodimers: 5.00 × 10^−11 molecules−1 sec−1
  kf5: BTC binding to E1 heterodimers: 5.00 × 10^−11 molecules−1 sec−1
  kr3: BTC dissociation from E1: 0.001 s⁻¹
ErbB1 (E1); model parameter, endosome
  kf129: BTC binding in the endosome: 3.8 molecules−1 sec−1

## Epiregulin: ErbB ligand epiregulin
pErbB1 in NCI-ADRr cells
  pErbB1 % stimulation at 5 min relative to maximum: 9.0%
pErbB2 in NCI-ADRr cells
  pErbB2 % stimulation at 5 min relative to maximum: 18.0%
pAKT in NCI-ADRr cells
  pAKT % stimulation at 5 min relative to maximum: 11.0%

## HB-EGF: ErbB ligand, heparin-binding epidermal growth factor
pErbB1 in NCI-ADRr cells
  EC50: 21 nM
  pErbB1 % stimulation at 5 min relative to maximum: 87.0%
pErbB2 in NCI-ADRr cells
  EC50: 230 nM
  pErbB2 % stimulation at 5 min relative to maximum: 94.0%
pErbB3 in NCI-ADRr cells
  pErbB3 % stimulation at 5 min relative to maximum: 32.0%
pAKT in NCI-ADRr cells
  pAKT % stimulation at 5 min relative to maximum: 20.0%

## HRG1-β: ErbB ligand heregulin, binds to ErbB3 and ErbB4
pErbB1 in NCI-ADRr cells
  pErbB1 % stimulation at 5 min relative to maximum: 0.0%
pErbB2 in NCI-ADRr cells
  EC50: 7 nM
  pErbB2 % stimulation at 5 min relative to maximum: 43.0%
pErbB3 in NCI-ADRr cells
  EC50: 9.9 nM
  pErbB3 % stimulation at 5 min relative to maximum: 100.0%
pAKT in NCI-ADRr cells
  EC50: 1.9 nM
  pAKT % stimulation at 5 min relative to maximum: 100.0%
ErbB3 (E3); [8]
  forward binding rate: ~100000 M⁻¹ s⁻¹
ErbB3 (E3); model parameter
  kf2: HRG binding to E3:E2 dimers: 5.00 × 10^−11 molecules−1 sec−1
  kr1: HRG dissociation from E3: 0.001 s⁻¹
  kr2: HRG dissociation from E3:E2 dimers: 0.001 s⁻¹
ErbB3 (E3); model parameter, endosome
  kf127: HRG binding in the endosome: 3.8 molecules−1 sec−1
ErbB3 (E3); model parameter, unit conversion from 1e5 M−1s−1/(Vmedia*Av/Num_cells)
  kf1: HRG binding to E3 or E4: 5.00 × 10^−11 molecules−1 sec−1

## TGFα: ErbB ligand, transforming growth factor alpha
pErbB1 in NCI-ADRr cells
  EC50: 30 nM

B1: Ab #6: anti-ErbB3 antibody described in WO 2008/100624, VH and VL sequences of SEQ ID NOs: 1 and 2 (antibody, V domains shown)
VH: EVQLLESGGGLVQPGGSLRLSCAASGFTFSHYVMAWVRQAPGKGLEWVSSISSSGGWTLYADSVKGRFTISRDNSKNTLYLQMNSLRAEDTAVYYCTRGLKMATIFDYWGQGTLVTVSS
VL: QSALTQPASVSGSPGQSITISCTGTSSDVGSYNVVSWYQQHPGKAPKLIIYEVSQRPSGVSNRFSGSKSGNTASLTISGLQTEDEADYYCCSYAGSSIFVIFGGGTKVTVL
[1]; [9]
  GRR [%] (Tumor Growth Rate Reduction): 0%
[1]; compared to PBS control
  effect of antibody treatment on tumor growth: did not inhibit tumor growth
[2]; [10]
  GRR [%] (Tumor Growth Rate Reduction): 72.6%
[2]; compared to PBS control
  effect of antibody treatment on tumor growth: inhibited tumor growth
[3]; [9]
  GRR [%] (Tumor Growth Rate Reduction): 0%
[3]; compared to PBS control
  effect of antibody treatment on tumor growth: did not inhibit tumor growth
[4]; [10]
  GRR [%] (Tumor Growth Rate Reduction): 28.0%
[4]; compared to PBS control
  effect of antibody treatment on tumor growth: inhibited tumor growth
[5]
  experimentally observed responsiveness based on GRR value: non-responder
[5]; [11]
  GRR [%] (Tumor Growth Rate Reduction): 6.3%
[6]
  experimentally observed responsiveness based on GRR value: responders
[6]; [11]
  GRR [%] (Tumor Growth Rate Reduction): 91.4%
[7]
  experimentally observed responsiveness based on GRR value: responders
[7]; [11]
  GRR [%] (Tumor Growth Rate Reduction): 19.6%
ErbB3
  Ab #6 on-rate for binding to ErbB3 before unit conversion: calculated as 1.43e5 M^−1s^−1/(Vmedia*Av/Num_cells).
ErbB3; avidity due to volume reduction (Vmedia/Numcells)/Vshell
  kf Ab #6 _2: Ab #6 inhibitor binding to a second ErbB3: 4.96E−05 molecules^−1 sec^−1
ErbB3; unit conversion of on-rate/(Vmedia*Av/Num_cells), Num_cells = 30,000 per well
  kf Ab #6 _1: Ab #6 inhibitor binding to ErbB3: 7.15E−11 molecules^−1 sec^−1

B2: Epigen: ErbB ligand epigen (protein, UniProt Q6UW88 23-154, looked up)
Epigen: AAVTVTPPITAQQGNWTVNKTEADNIEGPIALKFSHLCLEDHNSYCINGACAFHHELEKAICRCFTGYTGERCEHLTLTSYAVDSYEKYIAIGIGVGLLLSGFLVIFYCYIRKRCLKLKSPYNVCSGERRPL
pErbB1 in NCI-ADRr cells
  pErbB1 % stimulation at 5 min relative to maximum: 12.0%
pErbB2 in NCI-ADRr cells
  pErbB2 % stimulation at 5 min relative to maximum: 25.0%
pErbB3 in NCI-ADRr cells
  pErbB3 % stimulation at 5 min relative to maximum: 3.0%
pAKT in NCI-ADRr cells
  pAKT % stimulation at 5 min relative to maximum: 11.0%
